For assay [1], the target named is HLA-A*32:01. In words: IEDB peptide-MHC binding, purified MHC/competitive/radioactivity; filed as Kd, often an IC50 or EC50 that approximates it; ≥ and ≤ were set here for values at or beyond the usual limits of such assays.
Assay [2] addresses HLA-B*44:02. Described as above.
Assay [3] has as its target HLA-B*07:02. Kind of assay: IEDB peptide-MHC binding, purified MHC/direct/fluorescence; filed as Kd, often an IC50 or EC50 that approximates it; ≥ and ≤ were set here for values at or beyond the usual limits of such assays. The note with it: source organism: Homo sapiens.
Assay [4] concerns the target HLA-A*69:01. The assay is described as above. As to conditions: source organism: Homo sapiens.
The target of assay [5] is HLA-A*26:01. In words: IEDB peptide-MHC binding, purified MHC/competitive/radioactivity; filed as Kd, often an IC50 or EC50 that approximates it; ≥ and ≤ were set here for values at or beyond the usual limits of such assays.
Assay [6] deals with HLA-B*40:01. In words: IEDB peptide-MHC binding, purified MHC/direct/fluorescence; filed as Kd, often an IC50 or EC50 that approximates it; ≥ and ≤ were set here for values at or beyond the usual limits of such assays.
For assay [7], the target named is HLA-A*23:01. Kind of assay: IEDB peptide-MHC binding, purified MHC/competitive/radioactivity; filed as Kd, often an IC50 or EC50 that approximates it; ≥ and ≤ were set here for values at or beyond the usual limits of such assays.
Assay [8] has as its target HLA-A*30:02. The description is as above.
Assay [9] addresses HLA-B*44:03. Described as above.
Assay [10] deals with HLA-A*01:01. The description is as above.
Assay [11] has as its target HLA-B*58:01. In words: IEDB peptide-MHC binding, purified MHC/direct/fluorescence; filed as Kd, often an IC50 or EC50 that approximates it; ≥ and ≤ were set here for values at or beyond the usual limits of such assays. The note with it: source organism: Homo sapiens.
Assay [12] concerns the target HLA-B*40:01. In words: IEDB peptide-MHC binding, purified MHC/competitive/radioactivity; filed as Kd, often an IC50 or EC50 that approximates it; ≥ and ≤ were set here for values at or beyond the usual limits of such assays.
Assay [13] addresses HLA-A*24:02. Described as above.
Assay [14] concerns the target HLA-A*29:02. Described as above. The note with it: source organism: Mammarenavirus guanaritoense.
Assay [15] concerns the target HLA-A*03:01. Kind of assay: IEDB peptide-MHC binding, purified MHC/direct/fluorescence; filed as Kd, often an IC50 or EC50 that approximates it; ≥ and ≤ were set here for values at or beyond the usual limits of such assays. The note with it: source organism: Homo sapiens.
Assay [16] concerns the target HLA-A*11:01. The description is as above. As to conditions: source organism: Homo sapiens.
Assay [17] concerns the target HLA-A*01:01. The assay is described as above. The note with it: source organism: Homo sapiens.
Assay [18] concerns the target HLA-A*02:06. Kind of assay: IEDB peptide-MHC binding, purified MHC/competitive/radioactivity; filed as Kd, often an IC50 or EC50 that approximates it; ≥ and ≤ were set here for values at or beyond the usual limits of such assays. The note with it: source organism: Vaccinia virus WR.
Assay [19] concerns the target HLA-A*02:02. The assay is described as above. The note with it: source organism: Vaccinia virus WR.
In assay [20] the target is HLA-A*02:03. The assay is described as above. The note with it: source organism: Vaccinia virus WR.
[21] abbreviates: source organism: Dengue virus 2 Jamaica/1409/1983.
[22] abbreviates: source organism: Dengue virus 1 Brazil/97-11/1997.
The mark [23] stands for this setting: source organism: Dengue virus 4 Philippines/H241/1956.
[24] abbreviates: source organism: Dengue virus 3 Martinique/1243/1999.
Where [25] appears, read: source organism: Vaccinia virus WR.
The mark [26] stands for this setting: source organism: Mammarenavirus guanaritoense.

We go through 38 sequences from the Immune Epitope Database (IEDB).

Take GPISTLWEGN: the Kd in assay [1] (setting [21]) was determined as 9040 nM. Take LTARATWATN: the Kd in assay [1] (setting [22]) was at least 44400 nM.

With SLEKAANVQW, in assay [2] (setting [23]), the Kd turned out to be 10700 nM. Turning to EPEPHILLF, the Kd in assay [3] worked out at 5470 nM; in assay [4], 7050 nM. Take EVTARWLWGF: the Kd in assay [5] (source organism: Dengue virus 1 Singapore/S275/1990) is 32.7 nM. For GSPGKFWNTT, in assay [1] (setting [22]), the Kd is at least 25700 nM.

TEEAFKIGL: the Kd in [6] (source organism: Mammarenavirus juninense) was determined as 0.3 nM. EHALLATSIF: the Kd is 4610 nM in assay [7] (setting [22]) and at least 22400 nM in assay [5] (setting [22]). Regarding CNLTSAWVMY, the Kd in assay [8] (setting [23]) was 554 nM. In the case of HEEPVPMSTY, the Kd turned out to be 106 nM in assay [2] (setting [24]) and 409 nM in assay [9] (setting [24]).

As to YSDPLALKE, the Kd in [10] (setting [21]) stood at 311 nM. For the sequence NALKINWYKK, the Kd in assay [1] (setting [24]) stood at 2140 nM. For RPAKSMDSL, the results for the Kd in assay [11], in assay [3] and in assay [4] were 18800 nM, 146 nM and 5060 nM, respectively.

For the sequence LTSKELMMA, the Kd in [10] (setting [21]) amounted to 5730 nM. Regarding DINFITVNI, the equilibrium dissociation constant (Kd) in assay [1] (setting [25]) came to 424 nM.

Turning to AICSAVPVDW, the Kd in assay [2] (setting [22]) amounted to 893 nM.

Take LEELGDGLAM: the Kd in [12] (setting [22]) is 51.2 nM. Consider DMCDIYLLY, for which the Kd in assay [7] (setting [25]) was found to be 216 nM; in assay [13] (setting [25]) it was 2070 nM. For NGVVTKNGGY, in [8] (setting [24]), the Kd stood at 15500 nM. For NELPESLETL, the Kd in [12] (setting [23]) came out at 246 nM. In the case of KEAKMLLDNI, the Kd in [9] (setting [21]) came out at 1760 nM. Take AEYTNSVTNI: the values for the Kd in assay [2] (setting [23]), in assay [9] (setting [23]) and in [12] (setting [23]) were 280 nM, 51.6 nM and 158 nM, respectively. With KYILIQAGF, the Kd is 1.77 nM in [7] (setting [26]), 3740 nM in assay [14] and 11.9 nM in [13] (setting [26]).

Consider METLLLLGL, for which the values for the Kd in [2] (setting [24]), in assay [9] (setting [24]) and in assay [12] (setting [24]) were 8.98 nM, 33.2 nM and 81.3 nM, respectively. As for RSCTLPPLRF, the figures for the dissociation constant Kd in assay [7] (setting [22]) and in assay [13] (setting [22]) were 2520 nM and 10700 nM, respectively. On to DEDNPYKTW, for which the values for the Kd in assay [2] (setting [22]) and in [9] (setting [22]) were 519 nM and 640 nM, respectively.

For the sequence SLDRKEFEEY, the Kd in [10] (setting [23]) was determined as 1050 nM. With STDHIPILY, the Kd was 3150 nM in [15]; 2030 nM in [11]; 7420 nM in assay [4]; 381 nM in assay [16]; 148 nM in assay [17].

STIANSNII: the Kd in assay [1] (setting [25]) was 14.3 nM; in assay [18] it was 1240 nM; in assay [19] it was 6120 nM; in [20] it was 1470 nM. With ITISEDGSM, the Kd in assay [5] (setting [21]) stood at 2990 nM. In the case of AGILKRWGQL, in assay [1] (setting [23]), the Kd was 4440 nM. Consider KEENMVKSL, for which, in [12] (setting [24]), the Kd came out at 156 nM. For the sequence IISYIILFI, the Kd is at least 27600 nM in assay [1] (setting [25]), 27.1 nM in [18], 2.78 nM in [19] and 58.7 nM in [20]. Take SICEIVYSF: the Kd in assay [1] (setting [25]) was found to be 0.352 nM. Regarding NRKGKVIGLY, in [8] (setting [23]), the Kd stood at 109 nM. As for VEMGEAAGI, the Kd in [2] (setting [21]) worked out at 26.5 nM; in assay [9] (setting [21]), 206 nM; in assay [12] (setting [21]), 268 nM. In the case of SEVSNVQRL, the Kd in assay [6] (source organism: Mammarenavirus lassaense) was found to be 70.9 nM. With TENILTVLL, the Kd in assay [2] (setting [24]) was 0.409 nM; in assay [9] (setting [24]), 351 nM; in assay [12] (setting [24]), 12.2 nM.

A word on the Kd: it is the concentration at which binding is half-saturated.
